The supplement of paper PMC7125110
± gives the standard error. This sample holds only a part of the variants without activity.

B1: glmS ribozyme (parent)
chain: AUAAAAGCGCCAGAACUACAGAAAUGUAGUUGACGAGGAGGAGGUUUAUCGAAUUUUCGGCGGAUGCCUCCAAA

Legend:
Conditions in all cases: with glucosamine-6-phosphate
glucosamine-6-phosphate [1] = variants of: B1; assay: self-cleavage kobs at 640 uM GlcN6P; higher = faster cleavage; RNA array
How it was run: (§1)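 Weighted Michaelis–Menten fits across concentrations supplied kcat and KM, based on kobs from one- or two-exponential decay fits to normalised per-tile medians. The data came from barcoded ribozyme variants transcribed in situ by E. coli RNA polymerase on sequenced MiSeq chips and tracked at 37 °C by a hybridised Cy3 probe. Glucosamine-6-phosphate (40 μM to 10 mM) in HEPES/KCl/Mg(OAc)2 buffer was flowed in.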

glucosamine-6-phosphate [2] = variants of: B1; assay: self-cleavage kobs at 2500 uM GlcN6P; higher = faster cleavage; RNA array
How it was run: as §1

glucosamine-6-phosphate [3] = variants of: B1; assay: self-cleavage kobs at 10000 uM GlcN6P; higher = faster cleavage; RNA array
How it was run: as §1

Variant	self-cleavage kobs at 640 uM GlcN6P (glucosamine-6-phosphate [1])	self-cleavage kobs at 2500 uM GlcN6P (glucosamine-6-phosphate [2])	self-cleavage kobs at 10000 uM GlcN6P (glucosamine-6-phosphate [3])
C8G G60A C61G	< 1e-05 s⁻¹	< 1e-05 s⁻¹	
A6U C70A	0.000142 ± 6.1e-05 s⁻¹	2.49e-05 ± 9.6e-06 s⁻¹	
G9A U46C C67U	< 1e-05 s⁻¹		
C10G C58U G63U	< 1e-05 s⁻¹		
C10G U55A U57A	< 1e-05 s⁻¹		
G7U U30C U45A C71G	< 1e-05 s⁻¹		
C8A C19A	< 1e-05 s⁻¹	< 1e-05 s⁻¹	
C8U A15C C16G U30C	< 1e-05 s⁻¹		
C10A A48C G59C	< 1e-05 s⁻¹		
C8A C10A C34A	< 1e-05 s⁻¹		
C8U U30A G62C	< 1e-05 s⁻¹		
G9C C50U C58U	< 1e-05 s⁻¹	< 1e-05 s⁻¹	
G9A G29A A33C G66A	< 1e-05 s⁻¹		
C10U A12U C50U C70U	0.000161 ± 6.4e-05 s⁻¹		
G7U A48U C50A C67G	0.000229 ± 8.3e-05 s⁻¹		
G7U C11U A12C A15C A48G	< 1e-05 s⁻¹		
G9A U31G A52C	< 1e-05 s⁻¹		
C10A C16U C68A	0.000489 ± 0.00017 s⁻¹		
G9C C11U U56G G66C	< 1e-05 s⁻¹		
C8U G60A U65C	< 1e-05 s⁻¹		
C8A G40A A42U G62C	< 1e-05 s⁻¹		
G9U U30C U57A	< 1e-05 s⁻¹	< 1e-05 s⁻¹	
C10U A33G G40U C50G	< 1e-05 s⁻¹		
C8G U31A A39C G44U	< 1e-05 s⁻¹		
G7U C10U C16A U30G A48C	< 1e-05 s⁻¹		

Variant	self-cleavage kobs at 640 uM GlcN6P (glucosamine-6-phosphate [1])	self-cleavage kobs at 2500 uM GlcN6P (glucosamine-6-phosphate [2])	self-cleavage kobs at 10000 uM GlcN6P (glucosamine-6-phosphate [3])
G9A C16U C58U	< 1e-05 s⁻¹		
C8G A42U	< 1e-05 s⁻¹		< 1e-05 s⁻¹
G7C G32C G59A	< 1e-05 s⁻¹		
G7C A64U G66U	< 1e-05 s⁻¹		
C10A G32C C34U	< 1e-05 s⁻¹		
G9U G29U C34A G41U U57G G59A	< 1e-05 s⁻¹	< 1e-05 s⁻¹	
C10G G40A C70U	< 1e-05 s⁻¹	< 1e-05 s⁻¹	
C8G G32A A53G	< 1e-05 s⁻¹		
C8G G66C	< 1e-05 s⁻¹	< 1e-05 s⁻¹	
G7A G37A G66U	< 1e-05 s⁻¹	< 1e-05 s⁻¹	
G7U C68G	0.000534 ± 0.00015 s⁻¹		
G9U C70G	< 1e-05 s⁻¹	< 1e-05 s⁻¹	< 1e-05 s⁻¹
G7C G9U C11G C16G U30G G43U G44U C61U	< 1e-05 s⁻¹	< 1e-05 s⁻¹	< 1e-05 s⁻¹
G7U A12C U49C	< 1e-05 s⁻¹		
G7C G9U G62C	< 1e-05 s⁻¹		
C10A A12U G29A A39G A52G C67G	0.000283 ± 8.4e-05 s⁻¹	0.000236 ± 7.4e-05 s⁻¹	
C8A G13U C58A U65G C67G	< 1e-05 s⁻¹		
G9C G37C U46C C50G	< 1e-05 s⁻¹	< 1e-05 s⁻¹	
G9U C34G C58U	< 1e-05 s⁻¹	< 1e-05 s⁻¹	
C10U C11A G43A C68G C70U	< 1e-05 s⁻¹		
C8G C10U G38A U65G C68G	4.45e-05 ± 1.9e-05 s⁻¹		
C8A A53U C58A G59U	< 1e-05 s⁻¹		
A6U G35A C70U	< 1e-05 s⁻¹		
G7A G13C G62U	< 1e-05 s⁻¹		
G7A G51A C58A	< 1e-05 s⁻¹	< 1e-05 s⁻¹	

Variant	self-cleavage kobs at 640 uM GlcN6P (glucosamine-6-phosphate [1])	self-cleavage kobs at 2500 uM GlcN6P (glucosamine-6-phosphate [2])	self-cleavage kobs at 10000 uM GlcN6P (glucosamine-6-phosphate [3])
C10U G29A C34G C50A G63A G66C	< 1e-05 s⁻¹		
G7U U46C U65A	< 1e-05 s⁻¹	< 1e-05 s⁻¹	
C8A G35C G66U A72G	< 1e-05 s⁻¹		
G9A C11A A39U G41A A42U C50A U57G	< 1e-05 s⁻¹	< 1e-05 s⁻¹	
C10G C11A C58A G66U	< 1e-05 s⁻¹		
G9C C16A G63C C71G	< 1e-05 s⁻¹		
C8U G44A U45C	< 1e-05 s⁻¹	< 1e-05 s⁻¹	
C10G U47A A53U G60U	< 1e-05 s⁻¹		
C10A G44A G59U	< 1e-05 s⁻¹		
G7C G29C C67G	< 1e-05 s⁻¹	< 1e-05 s⁻¹	
G7A G44U C67G	< 1e-05 s⁻¹		
C8U C10U U45C	< 1e-05 s⁻¹	< 1e-05 s⁻¹	
C8U A42U U49G A52G U57G	< 1e-05 s⁻¹	< 1e-05 s⁻¹	
G7U G40A G43C	< 1e-05 s⁻¹	< 1e-05 s⁻¹	
A6U U55G G59C U69C	0.000135 ± 5.3e-05 s⁻¹	5.57e-05 ± 2.7e-05 s⁻¹	
C8U C70G	0.0011 ± 0.00055 s⁻¹		
C10A A14C C67U C68A	0.0002 ± 7e-05 s⁻¹		
C10A A15C U45C	< 1e-05 s⁻¹		
C8G G29A G51C G59U	< 1e-05 s⁻¹		
G7C G41U C67G	< 1e-05 s⁻¹		
C10U C16G U31G A33C C70G	< 1e-05 s⁻¹		
G7U C34U A52U	< 1e-05 s⁻¹	< 1e-05 s⁻¹	
C8U A12U A14U G44A C61U	< 1e-05 s⁻¹	< 1e-05 s⁻¹	
G7U C34U A39C U69C	< 1e-05 s⁻¹		
G7U G13A A15C A36U G43A C67U	< 1e-05 s⁻¹	< 1e-05 s⁻¹	
